Legend:
[1] = biological target: recombinant His-tagged CD38 (human) (UniProt P28907); assay: Pepscan ELISA, LOOP7 array; His-tagged CD38 in solution, anti-His HRP
[2] = biological target: CD38 on cells of rat midbrain cultures (rat (cultures from Wistar rat embryos)) (UniProt Q64244); assay: cell-based or functional assay
CD38 on cells of rat midbrain cultures (rat (cultures from Wistar rat embryos)), sequence (Q64244 whole entry): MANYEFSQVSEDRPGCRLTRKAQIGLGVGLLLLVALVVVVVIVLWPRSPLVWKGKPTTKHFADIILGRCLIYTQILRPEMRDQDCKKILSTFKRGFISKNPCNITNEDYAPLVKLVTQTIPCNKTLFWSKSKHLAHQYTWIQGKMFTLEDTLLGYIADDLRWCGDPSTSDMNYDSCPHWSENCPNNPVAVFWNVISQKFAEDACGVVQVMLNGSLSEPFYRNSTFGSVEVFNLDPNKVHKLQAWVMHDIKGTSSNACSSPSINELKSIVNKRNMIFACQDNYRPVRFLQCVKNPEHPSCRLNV

| Substance | Value (Pepscan ELISA signal) [1] [mAU] | EC50, prevention of MPP^+-induced DA cell loss in rat midbrain cultures [2] [µg/mL] |
| --- | --- | --- |
| CD31 peptide CEYOVLVEC (LOOP7) | 651 | – |
| murine sCD31 (SEQ ID NO: 18) (from UniProt Q08481 18-585) (ligand) | – | 0.036 |

Source: patent US20230357354A1, “CD38-BINDING CD31 PEPTIDES AND USES THEREOF” (ENCEFA, priority 2020, published 2023)
